The values that follow come from article PMC5148741.

What all share (assay): fluorescence polarisation
Background: In fluorescence polarisation assays a small probe gives low polarisation when free and higher when bound to something large.

One test deals with MBP-TbtD.
A further test deals with TbtF.
For test [1], the target named is RRE of TbtF (residues 1–85).

What is called IC50 is the point on the concentration scale where inhibition reaches its midpoint. A higher IC50 goes with weaker potency. With TbtA M(−27)A (peptide), the IC50 with MBP-TbtD is 1090 nM; with TbtF, 2750 nM. Take TbtA P(−28)A (peptide): the concentration for half-maximal inhibition (IC50) with MBP-TbtD was determined as 2660 nM; with TbtF, 850 nM. As a reminder, the Kd is the equilibrium constant for the complex coming apart. In the case of “synthetic TbtA leader peptide derivatized with fluorescein isothiocyanate (FITC) at the N-terminus”, in test [1], the dissociation constant Kd came out at 100 nM.
